According to patent US20240010735A1 (EISAI R AND D MANAGEMENT, published 2024):

T1: mouse EphB6 extracellular region-Fc-His protein (mouse; human, UniProt O08644 33-591)
T1 construct: extracellular domain; not shown: Fc region of human IgG1; histidine tag
T1 sequence (looked up): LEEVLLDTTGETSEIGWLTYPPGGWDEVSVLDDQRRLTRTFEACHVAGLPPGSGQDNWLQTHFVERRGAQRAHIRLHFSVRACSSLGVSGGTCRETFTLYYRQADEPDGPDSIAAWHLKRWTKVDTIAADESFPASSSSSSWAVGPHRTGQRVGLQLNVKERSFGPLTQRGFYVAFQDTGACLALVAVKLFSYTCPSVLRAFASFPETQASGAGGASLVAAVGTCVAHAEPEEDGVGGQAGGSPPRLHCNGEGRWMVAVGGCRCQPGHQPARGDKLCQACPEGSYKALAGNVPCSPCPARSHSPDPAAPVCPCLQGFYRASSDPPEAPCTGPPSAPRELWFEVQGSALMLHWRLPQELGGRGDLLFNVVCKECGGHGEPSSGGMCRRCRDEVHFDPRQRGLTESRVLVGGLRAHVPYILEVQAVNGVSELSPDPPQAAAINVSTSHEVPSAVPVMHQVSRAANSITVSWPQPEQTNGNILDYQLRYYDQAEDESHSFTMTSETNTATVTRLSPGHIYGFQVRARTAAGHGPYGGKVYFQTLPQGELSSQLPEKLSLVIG

T2: mouse EphA8 extracellular region-Fc-His protein (mouse; human, UniProt O09127 27-541)
T2 construct: extracellular domain; not shown: Fc region of human IgG1; histidine tag
T2 sequence (looked up): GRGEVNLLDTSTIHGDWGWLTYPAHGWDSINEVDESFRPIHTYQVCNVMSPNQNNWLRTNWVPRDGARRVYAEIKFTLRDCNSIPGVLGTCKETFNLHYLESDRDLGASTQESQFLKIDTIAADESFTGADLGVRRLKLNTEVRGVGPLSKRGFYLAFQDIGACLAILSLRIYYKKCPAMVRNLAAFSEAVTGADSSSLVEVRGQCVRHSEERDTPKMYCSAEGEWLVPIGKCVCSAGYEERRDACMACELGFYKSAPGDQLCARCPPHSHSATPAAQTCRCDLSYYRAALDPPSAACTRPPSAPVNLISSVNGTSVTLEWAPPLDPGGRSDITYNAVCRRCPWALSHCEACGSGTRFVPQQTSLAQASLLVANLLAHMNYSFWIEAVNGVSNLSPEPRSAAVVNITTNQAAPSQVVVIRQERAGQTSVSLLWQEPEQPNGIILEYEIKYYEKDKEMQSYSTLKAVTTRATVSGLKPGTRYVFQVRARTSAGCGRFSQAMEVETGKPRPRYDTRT

T3: mouse EphA1 extracellular region-Fc-His protein (mouse; human, UniProt Q60750 27-548)
T3 construct: extracellular domain; not shown: Fc region of human IgG1; histidine tag
T3 sequence (looked up): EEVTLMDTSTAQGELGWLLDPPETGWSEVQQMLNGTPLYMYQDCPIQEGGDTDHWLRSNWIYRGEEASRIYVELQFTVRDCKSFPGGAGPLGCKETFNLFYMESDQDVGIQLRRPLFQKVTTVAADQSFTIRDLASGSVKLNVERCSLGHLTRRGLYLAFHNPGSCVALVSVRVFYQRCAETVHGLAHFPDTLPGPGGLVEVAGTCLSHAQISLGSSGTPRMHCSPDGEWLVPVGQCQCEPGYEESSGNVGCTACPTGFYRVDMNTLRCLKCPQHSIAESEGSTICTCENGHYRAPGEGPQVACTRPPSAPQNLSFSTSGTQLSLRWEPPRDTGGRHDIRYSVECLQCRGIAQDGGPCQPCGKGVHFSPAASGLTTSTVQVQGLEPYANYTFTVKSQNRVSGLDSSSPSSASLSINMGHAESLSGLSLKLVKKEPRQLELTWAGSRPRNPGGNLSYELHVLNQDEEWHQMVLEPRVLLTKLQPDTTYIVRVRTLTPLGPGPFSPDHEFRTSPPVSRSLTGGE


Legend:
[1] = target: T1, mouse EphB6 extracellular region-Fc-His …; assay: ELISA: Fc-His proteins (1 nM) captured on anti-6-His antibody, antibody A 10 µg/mL with human IgG 100 µg/mL, HRP anti-mouse IgG, OD450 as % of mouse EphA4-Fc-His
[2] = target: T2, mouse EphA8 extracellular region-Fc-His …; assay: as above
[3] = target: T3, mouse EphA1 extracellular region-Fc-His …; assay: ELISA: Fc-His proteins (1 nM) captured on anti-6-His antibody, antibody B 10 µg/mL with human IgG 100 µg/mL, HRP anti-human kappa light chain antibody, OD450 as % of mouse EphA4-Fc-His
Procedure: Rabbit anti-6-His antibodies (Bethyl Laboratories) were coated onto the wells of a 96-well plate (Nunc). After incubating at 4° C. overnight, the wells were blocked at room temperature for 1 hour by 1% Block Ace (DS Pharma Biomedical). After washing 3 times with 0.05% Tween 20/PBS (Thermo […]), each Eph receptor of mouse extracellular region-Fc-His protein (final concentration 1 nM) was seeded into each well, and incubated at room temperature for 1 hour. After washing 3 times, human IgG solution (100 μg/mL, Sigma) and antibody B (10 μg/mL) were supplemented to the wells, and incubated at room temperature for 1 hour. Horseradish peroxidase-labeled goat anti-human Kappa Light Chain antibody (IBL) was added, and incubated at room temperature for 1 hour. After washing 3 times, TMBZ (3,3′,5,5′-tetramethylbenzidine, Sigma) solution was added to the wells, and upon confirmation of modest coloring, an equal amount of quenching solution (1 N H₂SO₄, Wako Pure Chemicals) was added to the wells, and absorbance at 450 nm was read by a microplate reader (PerkinElmer).

Row | Binder | binding result [1] | binding result [2] | binding result [3]
1 | mouse anti-EphA4 monoclonal antibody (antibody A) (antibody, mouse IgG1, kappa, V domains shown, purified from hybridoma supernatant) VH: QVQLKQSGPSLVQPSQSLSITCTVSGFSLTRYGVHWVRQSPGKGLEWLGVIWRGGSTDYNAAFMSRLSITKDNSKSQVFFKMNSLQADDTAIYYCAKESLFGVYYDYGYYSMDYWGQGTSVTVSS VL: DIQMTQSPSSLSASLGERVSLTCRASQEISGYLSWLQQKPDGTIKRLIYAASTLDSGVPKRFSGSRSGSDYSLTISSLESEDFADYYCLQYASYPLTFGAGTKLELKR | no binding (tested: 10 µg/mL) | no binding (tested: 10 µg/mL) | 
2 | humanized anti-EphA4 monoclonal antibody (antibody B) (antibody, human IgG2, V domains shown, expressed in Expi293F cells; also called humanized antibody of antibody A; HK2-42 / L1-8) VH: QVQLVESGGGVVQPGRSLRLSCAVSGFSLTRFGVHWVRQAPGKGLEWVAVIWRGGSTDYNAAFMSRLTISKDNSKNTVYLQMNSLRAEDTAVYYCAKESLFGVYYDYGYYSMDYWGQGTTVTVSS VL: DIQMTQSPSSLSASVGDRVTITCRASQEISGYLSWLQQKPGKAPKRLIYAASTLDSGVPSRFSGSRSGTEYTLTISSLQPEDFATYYCLQYASYPLTFGGGTKVEIKR |  |  | no binding (tested: 10 µg/mL)
